Reference: patent US20260049151A1 (SHENGHE CHINA BIOPHARMACEUTICAL, published 2026)
Where two headings read alike, the source gives them in different places.

T1: Human TNFR2 mFc (human, UniProt P20333 23-257)
T1 construct: Bought protein; not shown: mFc
T1 sequence (looked up): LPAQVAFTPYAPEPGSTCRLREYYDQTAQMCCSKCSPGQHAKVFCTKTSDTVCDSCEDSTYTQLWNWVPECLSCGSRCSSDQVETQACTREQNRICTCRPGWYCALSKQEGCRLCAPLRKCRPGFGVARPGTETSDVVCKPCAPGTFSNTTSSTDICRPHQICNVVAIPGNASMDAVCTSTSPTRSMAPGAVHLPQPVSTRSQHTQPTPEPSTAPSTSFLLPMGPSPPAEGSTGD

T2: Human-TNFR2-His (human, UniProt P20333 23-257)
T2 construct: Bought protein; also called human TNFR2 protein; TNFR2 protein; not shown: His tag
T2 sequence (looked up): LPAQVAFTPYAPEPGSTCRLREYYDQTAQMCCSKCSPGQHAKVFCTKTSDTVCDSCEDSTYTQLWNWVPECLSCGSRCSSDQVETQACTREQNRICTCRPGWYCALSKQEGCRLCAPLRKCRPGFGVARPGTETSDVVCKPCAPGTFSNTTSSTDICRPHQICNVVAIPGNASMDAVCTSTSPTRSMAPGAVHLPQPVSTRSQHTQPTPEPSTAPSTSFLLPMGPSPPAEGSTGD


How the values were obtained:
Human 4-1BB Fc = molecular target: T3, Human 4-1BB Fc (human, UniProt Q07011 24-186); assay: bridging ELISA: Human 4-1BB Fc coated (0.3 ug/mL), antibody titrated, then Human-TNFR2-His (0.3 ug/mL), HRP anti-His detection (Example 4)
T3 construct: same catalogue and lot number as Human 4-1BB His; not shown: Fc
Description: Human 4-1BB Fc (manufacturer: Acro, CAT: 41B-H5258, LOT: 198-2146F1-W6) was diluted to 0.3 μg/mL with a coating solution (1×PBS, pH7.4) and coated into a 96-well ELISA plate at 100 µL/well at 4° C. overnight. The coating solution was poured off. Each well was washed with 1×PBST at 300 μL, washed 4 times with a plate washer, and patted dry on a flat sheet. It was blocked with 3% skim milk powder at 300 μL/well, and incubated at 37° C. for 1 h. The blocking solution was poured off, washed 4 times with a plate washer, and patted dry on a flat sheet. […] Starting at 50 nM, which was used as the initial concentration for 3-fold dilution, a total of 10 gradients were diluted, and a blank well was set up and only the diluent was added. It was incubated at 37° C. for 1 h at 100 μL/well. The liquid in the well was discarded, washed 4 times with a plate washer, and patted dry on a flat paper. Human-TNFR2-His (manufacturer: Sino, CAT: 10417-H08H, LOT: LC15NO0412) was diluted to 0.3 μg/mL, 100 μL was added to each well, and incubated at room temperature for 1 h. The plate was washed 3 times with PBST, and then the HRP-labeled his antibody was diluted with sample diluent at 1:5000, 100 μ L was added to each well, and incubated at room temperature for 1 h. It was washed 6 times with a plate washer, and patted dry on a flat paper. TMB color developing solution was added at 100 μL/well, and wrapped with aluminum foil. Color development was performed at 37° C. in the dark for 8 min. Termination solution 1M HCl was added to terminate the color development reaction at 100 μL/well. Readings were taken at 450 nm on an ELISA reader.

Human TNFR2 mFc = molecular target: T1, Human TNFR2 mFc; assay: bridging ELISA: Human TNFR2 mFc coated (0.3 ug/mL), antibody titrated, then Human 4-1BB His (0.3 ug/mL), HRP anti-His detection (Example 5)
Description: (§1) Human TNFR2 mFc (manufacturer: Kaixia, CAT: TN-HM3R2, LOT: 031202) was diluted to 0.3 μg/mL with a coating solution (1×PBS, pH7.4) and coated into a 96-well ELISA plate at 100 μL/well at 4° C. overnight. The coating solution was poured off. Each well was washed with 1×PBST at 300 μL, washed 4 times with a plate washer, and patted dry on a flat paper. It was blocked with 3% skim milk powder at 300 μL/well, and incubated at 37° C. for 1 h. The blocking solution was poured off, washed 4 times with a plate washer, and patted dry on a flat paper. […] Starting at 50 nM, which was used as the initial concentration for 3-fold dilution, a total of 10 gradients were diluted, and a blank well was set up and only the diluent was added. It was incubated at 37° C. for 1 h at 100 µL/well. The liquid in the well was discarded, washed 4 times with a plate washer, and patted dry on a flat paper. Human 4-1BB His (manufacturer: Acro, CAT: 41B-H5258, LOT: 198-2146F1-W6) was diluted to 0.3 μg/mL, 100 μL was added to each well, and incubated at room temperature for 1 h. The plate was washed 3 times with PBST, and then the HRP-labeled his antibody was diluted with sample diluent at 1:5000, 100 μ L was added to each well, and incubated at room temperature for 1 h. It was washed 6 times with a plate washer, and patted dry on a flat paper. TMB color developing solution was added at 100 μL/well, and wrapped with aluminum foil. Color development was performed at 37° C. in the dark for 8 min. Termination solution 1M HCl was added to terminate the color development reaction at 100 μL/well. Readings were taken at 450 nm on an ELISA reader.

Human 4-1BB His [1] = molecular target: T4, Human 4-1BB His (human, UniProt Q07011 24-186); assay: ELISA: Human 4-1BB His coated (0.2 ug/mL), antibody titrated, goat anti-human IgG Fc detection (Example 3)
T4 construct: Bought protein; lots 198-2146F1-W6 and 2407c-214FF1-YC; also called human 4-1BB protein; 4-1BB protein; not shown: His tag
Description: Human 4-1BB His (manufacturer: Acro, CAT: 41B-H5258, LOT: 198-2146F1-W6) was diluted to 0.2 μg/mL with a coating solution (1×PBS, pH7.4), and coated in 96-well ELISA plate at 100 μL/well overnight at 4° C. The coating solution was poured off. Each well was washed with 1×PBST at 300 μL, washed 4 times with a plate washer, and patted dry on a flat paper. It was blocked with 3% skim milk powder at 300 μL/well, and incubated at 37° C. for 1 h. The blocking solution was poured off, washed 4 times with a plate washer, and patted dry on a flat paper. Negative control and positive control were set up. […] The variable region of the antibody sequence of the positive control consists of SEQ ID NO: 15 and SEQ ID NO: 19, with the addition of the constant region of human IgG1 (SEQ ID NO: 46 and SEQ ID NO: 47). The positive control and antibody were diluted to 10 μg/mL with 3% skim milk powder as the starting concentration, and then diluted by 3-fold gradient (11 gradients in total), and a blank well was set up and only the diluent was added. It was incubated at 37° C. for 1 h at 100 μL/well. The liquid in the well was discarded, washed 4 times with a plate washer, and patted dry on a flat paper. Goat anti-human IgG Fc was diluted with 3% skim milk powder at 1:20000, and incubated at 37° C. for 1 h at 100 μL/well. It was washed 6 times with a plate washer, and patted dry on a flat paper. TMB color developing solution was added at 100 μL/well, and wrapped with aluminum foil. Color development was performed at 37° C. in the dark for 8 min. Termination solution 1M HCl was added to terminate the color development reaction at 100 μL/well. Readings were taken at 450 nm on an ELISA reader.

Human-TNFR2-His [2] = molecular target: T2, Human-TNFR2-His; assay: ELISA: Human-TNFR2-His coated (0.1 ug/mL), antibody titrated, goat anti-human IgG Fc detection (Example 2)
Description: (§2) Human-TNFR2-His (manufacturer: SINO, CAT: 10417-H08H, LOT: LC15NO0412) was diluted to 0.1 μg/mL with a coating solution (1×PBS, pH7.4), and coated in 96-well ELISA plate at 100 µL/well overnight at 4° C. The coating solution was poured off. Each well was washed with 1×PBST at 300 μL, washed 4 times with a plate washer, and patted dry on a flat paper. It was blocked with 3% skim milk powder at 300 μL/well, and incubated at 37° C. for 1 h. The blocking solution was poured off, washed 4 times with a plate washer, and patted dry on a flat paper. Negative control and positive control were set up. […] The positive control and antibody were diluted to 10 μg/mL with 3% skim milk powder as the starting concentration, and then diluted by 3-fold gradient (11 gradients in total), and a blank well was set up and only the diluent was added. It was incubated at 37° C. for 1 h at 100 μL/well. The liquid in the well was discarded, washed 4 times with a plate washer, and patted dry on a flat paper. Goat anti-human IgG Fc was diluted with 3% skim milk powder at 1:10000, and incubated at 37° C. for 1 h at 100 μL/well. It was washed 6 times with a plate washer, and patted dry on a flat paper. TMB color developing solution was added at 100 μL/well, and wrapped with aluminum foil. Color development was performed at 37° C. in the dark for 8 min. Termination solution 1M HCl was added to terminate the color development reaction at 100 μL/well. Readings were taken at 450 nm on an ELISA reader.

Human 4-1BB His [3] = molecular target: T4, Human 4-1BB His; assay: bridging ELISA: Human TNFR2 mFc coated (0.3 ug/mL), antibody titrated, then Human 4-1BB His (0.3 ug/mL), HRP anti-His detection (Example 5)
Description: as §1

Human-TNFR2-His [4] = molecular target: T2, Human-TNFR2-His; assay: ELISA: Human-TNFR2-His coated (0.1 ug/mL), antibody titrated, goat anti-human IgG Fc detection (Example 2); remark: listed apart in the source
Description: as §2

T4 sequence (Q07011 24-186 limits assumed): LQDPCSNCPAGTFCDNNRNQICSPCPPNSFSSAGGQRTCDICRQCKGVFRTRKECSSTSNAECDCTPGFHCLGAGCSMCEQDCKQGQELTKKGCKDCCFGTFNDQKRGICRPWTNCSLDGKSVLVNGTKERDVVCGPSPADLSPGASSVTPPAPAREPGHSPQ
T3 sequence (Q07011 24-186 limits assumed): as above

Row | EC50 (read off the curve) (Human 4-1BB Fc) | EC50 (read off the curve) (Human TNFR2 mFc) | EC50 (read off the curve) (Human 4-1BB His [1]) | EC50 (read off the curve) (Human-TNFR2-His [2]) | binding result (Human TNFR2 mFc) | binding result (Human 4-1BB His [3]) | binding result (Human-TNFR2-His [2]) | binding result (Human-TNFR2-His [4]) | Binder
1 | ~0.4 nM | ~0.2 nM | ~0.3 nM | ~0.08 nM |  |  |  |  | Antibody F (bispecific antibody, human IgG1, kappa, IgG1 subtype; full-length TNFR2 antibody with 4-1BB scFv at the C-terminus of the light chains) light: DIVMTQSPATLSVSPGERATLSCKASQNVGSNVDWYQQKPGQSPRVLIYKASIRYTGIPARFSGSGSGTEFTLTISILQSEDFAVYFCMQSKSYPITFGQGTKLEIKRTVAAPSVFIFPPSDEQLKSGTASVVCLLNNFYPREAKVQWKVDNALQSGNSQESVTEQDSKDSTYSLSSTLTLSKADYEKHKVYACEVTHQGLSSPVTKSFNRGECGGGGSGGGGSQVQLQESGPGLVKPSETLSLTCTVSGSSLTSYGVHWVRQPPGKCLEGLGVIWPGGSTNYNSALMSRVTISKDNSKSQVSLKMSSLTAADTAVYYCARVTGTWYFDVWGQGTTVTVSSGGGGSGGGGSGGGGSDIQMTQSPSSLSASLGDRVTISCSASQGISNYLNWYQQKPDGTVKLLIYYTSTLHSGVPSRFSGSGSGTDYTLTISSLQPEDIATYYCQQYSKLPWTFGCGTKLEIK heavy: not shown
2 |  |  |  |  | binds | binds | binds |  | Antibody D (bispecific antibody, human IgG1, kappa, IgG1 subtype; full-length 4-1BB antibody with TNFR2 scFv at the N-terminus of the light chains) light: EVQLVQSGAEVKKPGATVKISCKVSGYSITDYLLHWVQQAPGKCLEWMGWIDPEDAKTKYGQKFQSRVTITADTSTDTAYMELSSLRSEDTAVYYCAANSGTGTMDAWGQGTLVTVSSGGGGSGGGGSGGGGSDIVMTQSPATLSVSPGERATLSCKASQNVGSNVDWYQQKPGQSPRVLIYKASIRYTGIPARFSGSGSGTEFTLTISILQSEDFAVYFCMQSKSYPITFGCGTKLEIKGGGGSGGGGSGGGGSDIQMTQSPSSLSASLGDRVTISCSASQGISNYLNWYQQKPDGTVKLLIYYTSTLHSGVPSRFSGSGSGTDYTLTISSLQPEDIATYYCQQYSKLPWTFGGGTKLEIKRTVAAPSVFIFPPSDEQLKSGTASVVCLLNNFYPREAKVQWKVDNALQSGNSQESVTEQDSKDSTYSLSSTLTLSKADYEKHKVYACEVTHQGLSSPVTKSFNRGEC heavy: not shown
3 |  |  |  |  | binds | binds |  | binds | Antibody B (bispecific antibody, human IgG1, kappa, IgG1 subtype; full-length 4-1BB antibody with TNFR2 scFv at the C-terminus of the light chains) light: DIQMTQSPSSLSASLGDRVTISCSASQGISNYLNWYQQKPDGTVKLLIYYTSTLHSGVPSRFSGSGSGTDYTLTISSLQPEDIATYYCQQYSKLPWTFGGGTKLEIKRTVAAPSVFIFPPSDEQLKSGTASVVCLLNNFYPREAKVQWKVDNALQSGNSQESVTEQDSKDSTYSLSSTLTLSKADYEKHKVYACEVTHQGLSSPVTKSFNRGECGGGGSGGGGSEVQLVQSGAEVKKPGATVKISCKVSGYSITDYLLHWVQQAPGKCLEWMGWIDPEDAKTKYGQKFQSRVTITADTSTDTAYMELSSLRSEDTAVYYCAANSGTGTMDAWGQGTLVTVSSGGGGSGGGGSGGGGSDIVMTQSPATLSVSPGERATLSCKASQNVGSNVDWYQQKPGQSPRVLIYKASIRYTGIPARFSGSGSGTEFTLTISILQSEDFAVYFCMQSKSYPITFGCGTKLEIK heavy: not shown
